The target in the test is Fab with CK (kappa) light chain constant domain. The test is described as follows: ELISA. (In general: An ELISA detects its analyte on a solid surface through an enzyme-linked reagent.)

Substance “wild type Protein G (wild-type non-modified protein G polypeptide)” came in with a fold lower EC50 for CK than for Cλ of 7 fold.

Values taken from patent US20240043534A1.
